From the Human Domainome abundance scans (Beltran et al. 2025) come the findings set out here.

To fix the notation:
B1: POU domain, class 4, transcription factor 1, residues 266 to 347; numbered along this chain, Q01851 (parent)
chain: RELEAFAERFKQRRIKLGVTQADVGSALANLKIPGVGSLSQSTICRFESLTLSHNNMIALKPILQAWLEEAEGAQREKMNKP

± gives the uncertainty stated by the source.

The variants in this series derive from B1. The series is described as follows: abundance fitness (aPCA) (normalised: wild type 0, dead -1); higher = more abundant; growth selection in yeast, the domain comes from the species named. To be noted: Homo sapiens.
Turning to RELEAFAERFKQRRIKLGVTQADVGSALANLKGPGVGSLSQSTICRFESLTLSHNNMIALKPILQAWLEEAEGAQREKMNKP [I33G], the abundance fitness was -0.282 ± 0.025.
For the variant RELEAFAERFKQRRIKLGVTQADVGSALANLKKPGVGSLSQSTICRFESLTLSHNNMIALKPILQAWLEEAEGAQREKMNKP [I33K], the abundance fitness is -0.203 ± 0.042.
Under RELEAFAERFKQRRIKLGVTQADVGSALANLKNPGVGSLSQSTICRFESLTLSHNNMIALKPILQAWLEEAEGAQREKMNKP [I33N] stands -0.219 ± 0.052; under RELEAFAERFKQRRIKLGVTQADVGSALANLKYPGVGSLSQSTICRFESLTLSHNNMIALKPILQAWLEEAEGAQREKMNKP [I33Y], -0.21 ± 0.053; under RELEAFAERFKQRRIKLGVTQADVGSALANLKQPGVGSLSQSTICRFESLTLSHNNMIALKPILQAWLEEAEGAQREKMNKP [I33Q], -0.295 ± 0.04.
As for RELEAFAERFKQRRIKLGVTQADVGSALANLKMPGVGSLSQSTICRFESLTLSHNNMIALKPILQAWLEEAEGAQREKMNKP [I33M], the abundance fitness was -0.056 ± 0.036.
On to RELEAFAERFKQRRIKLGVTQADVGSALANLKHPGVGSLSQSTICRFESLTLSHNNMIALKPILQAWLEEAEGAQREKMNKP [I33H], for which the abundance fitness is -0.147 ± 0.06.
Under RELEAFAERFKQRRIKLGVTQADVGSALANLKCPGVGSLSQSTICRFESLTLSHNNMIALKPILQAWLEEAEGAQREKMNKP [I33C] stands -0.005 ± 0.039.
With RELEAFAERFKQRRIKLGVTQADVGSALANLKSPGVGSLSQSTICRFESLTLSHNNMIALKPILQAWLEEAEGAQREKMNKP [I33S] the figure was -0.23 ± 0.034; with RELEAFAERFKQRRIKLGVTQADVGSALANLKWPGVGSLSQSTICRFESLTLSHNNMIALKPILQAWLEEAEGAQREKMNKP [I33W], -0.114 ± 0.03; with RELEAFAERFKQRRIKLGVTQADVGSALANLKDPGVGSLSQSTICRFESLTLSHNNMIALKPILQAWLEEAEGAQREKMNKP [I33D], -0.262 ± 0.054.
Under RELEAFAERFKQRRIKLGVTQADVGSALANLKRPGVGSLSQSTICRFESLTLSHNNMIALKPILQAWLEEAEGAQREKMNKP [I33R] stands -0.217 ± 0.026.
RELEAFAERFKQRRIKLGVTQADVGSALANLKVPGVGSLSQSTICRFESLTLSHNNMIALKPILQAWLEEAEGAQREKMNKP [I33V]: the abundance fitness stood at 0.05 ± 0.027.
RELEAFAERFKQRRIKLGVTQADVGSALANLKFPGVGSLSQSTICRFESLTLSHNNMIALKPILQAWLEEAEGAQREKMNKP [I33F]: the abundance fitness was -0.091 ± 0.048.
With RELEAFAERFKQRRIKLGVTQADVGSALANLKAPGVGSLSQSTICRFESLTLSHNNMIALKPILQAWLEEAEGAQREKMNKP [I33A], the abundance fitness was -0.139 ± 0.03.
With RELEAFAERFKQRRIKLGVTQADVGSALANLVIPGVGSLSQSTICRFESLTLSHNNMIALKPILQAWLEEAEGAQREKMNKP [K32V] the figure was -0.009 ± 0.059.
Under RELEAFAERFKQRRIKLGVTQADVGSALANLWIPGVGSLSQSTICRFESLTLSHNNMIALKPILQAWLEEAEGAQREKMNKP [K32W] stands -0.176 ± 0.071; under RELEAFAERFKQRRIKLGVTQADVGSALANLTIPGVGSLSQSTICRFESLTLSHNNMIALKPILQAWLEEAEGAQREKMNKP [K32T], 0.025 ± 0.076.
Under RELEAFAERFKQRRIKLGVTQADVGSALANLPIPGVGSLSQSTICRFESLTLSHNNMIALKPILQAWLEEAEGAQREKMNKP [K32P] stands -0.204 ± 0.13; under RELEAFAERFKQRRIKLGVTQADVGSALANLNIPGVGSLSQSTICRFESLTLSHNNMIALKPILQAWLEEAEGAQREKMNKP [K32N], -0.076 ± 0.27; under RELEAFAERFKQRRIKLGVTQADVGSALANLYIPGVGSLSQSTICRFESLTLSHNNMIALKPILQAWLEEAEGAQREKMNKP [K32Y], -0.281 ± 0.14.
Turning to RELEAFAERFKQRRIKLGVTQADVGSALANLSIPGVGSLSQSTICRFESLTLSHNNMIALKPILQAWLEEAEGAQREKMNKP [K32S], the abundance fitness was determined as 0.106 ± 0.096.
With RELEAFAERFKQRRIKLGVTQADVGSALANLQIPGVGSLSQSTICRFESLTLSHNNMIALKPILQAWLEEAEGAQREKMNKP [K32Q] the figure was -0.022 ± 0.11; with RELEAFAERFKQRRIKLGVTQADVGSALANLRIPGVGSLSQSTICRFESLTLSHNNMIALKPILQAWLEEAEGAQREKMNKP [K32R], -0.058 ± 0.054.
RELEAFAERFKQRRIKLGVTQADVGSALANLKIPFVGSLSQSTICRFESLTLSHNNMIALKPILQAWLEEAEGAQREKMNKP [G35F]: the abundance fitness came out at 0.122 ± 0.37.
As for RELEAFAERFKQRRIKLGVTQADVGSALANLKIPAVGSLSQSTICRFESLTLSHNNMIALKPILQAWLEEAEGAQREKMNKP [G35A], the abundance fitness was -0.397 ± 0.26.
RELEAFAERFKQRRIKLGVTQADVGSALANLKIPLVGSLSQSTICRFESLTLSHNNMIALKPILQAWLEEAEGAQREKMNKP [G35L]: the abundance fitness was -0.303 ± 0.19.
With RELEAFAERFKQRRIKLGVTQADVGSALANLKIPDVGSLSQSTICRFESLTLSHNNMIALKPILQAWLEEAEGAQREKMNKP [G35D] the figure was -0.142 ± 0.24.
Under RELEAFAERFKQRRIKLGVTQADVGSALANLKIPTVGSLSQSTICRFESLTLSHNNMIALKPILQAWLEEAEGAQREKMNKP [G35T] stands 0.07 ± 0.19.
Consider RELEAFAERFKQRRIKLGVTQADVGSALANLKIPSVGSLSQSTICRFESLTLSHNNMIALKPILQAWLEEAEGAQREKMNKP [G35S], for which the abundance fitness was -0.29 ± 0.23.
With RELEAFAERFKQRRIKLGVTQADVGSALANLKIPRVGSLSQSTICRFESLTLSHNNMIALKPILQAWLEEAEGAQREKMNKP [G35R] the figure was -0.056 ± 0.12; with RELEAFAERFKQRRIKLGVTQADVGSALANLKIPMVGSLSQSTICRFESLTLSHNNMIALKPILQAWLEEAEGAQREKMNKP [G35M], -0.175 ± 0.22.
Under RELEAFAERFKQRRIKLGVTQADVGSALANLKIPIVGSLSQSTICRFESLTLSHNNMIALKPILQAWLEEAEGAQREKMNKP [G35I] stands 0.268 ± 0.49; under RELEAFAERFKQRRIKLGVTQADVGSALANLKIPWVGSLSQSTICRFESLTLSHNNMIALKPILQAWLEEAEGAQREKMNKP [G35W], -0.326 ± 0.28.
